The results in this text go back to the DeepSol protein solubility set.

A short description of this data set: soluble on expression in E. coli; label from the status in PepcDB or PDB records.
In the case of “MSLSKIKEIRTKVYQWNGKTVPPQNNFCTNASDLLYEKSDAMGSFRFHEWLICEVETNDGHIGIGNAALAPQLVKNTIDTYLKPLVVGEDPFDYAYIWEKMYRKTLNWGRRGLGMVAISAIDIAIWDVLGKITNKPVFKLLGGRTKEKIPVYASKLYAQPLKQLQEEAEKYKNEGFKMFKSRMGWGPKDGSEGMKKNLQLLEAVREVIGEDTDLMVDCYMGWNLDYTKRMLPKMAKFNLRWLEEPVHADDIHGYAELNNMNIIPISGGEHEFNLFGFKQLLELNAVSYIQYDNNRVGGFTVAQKINALAEAYQIPVVPHAGQMHNYHLTMSNFNCPISEFFPVHEVEVGNELFYYIFEGDPAPVDGMIDLDDNTPGLGLKVTDKYKSDFKIIEEGHHHHHH”, the “soluble on expression in E. coli” value is “soluble”.
Take “MGSDKIHHHHHHMIRDNIMSQIDLPTDFDFQQAGRQVLEIEREGLAQLDQYINEDFTHACETIFRCGGKVVVMGMGKSGHIGRKMAATFASTGTSAFFVHPGEAAHGDLGMVTPQDVVIALSNSGESNEILALIPVLKRQQVKLICITSRPESSMARAADIHLCVKVPKEACPLGLAPTSSTTAALVMGDALAVALLEARGFTAEDFALSHPGGALGRKLLLRVNDIMHTGDEIPHVGLQATLRDALLEITRKNLGMTAICDDDMNIIGIFTDGDLRRVFDTGVDMRDASIADVMTRGGIRIRPGTLAVDALNLMQSRHITCVLVADGDHLLGVVHMHDLLRAGVV”: the “soluble on expression in E. coli” value is reported as “not soluble”.
In the case of “MGSDKIHHHHHHMIISVINLKGGSGKTTTAMALATAAARHNRNVSVLDTDPQGDATTWAGDAEDAGETLPFTVDSANIGKLKRLRKTMADDELVIIDCPPAGNVVDVACDVSDFVIVPATQGPFELSHALETAESLDAAGKPYALLLLKVENNKLAGNAVNLIRERGASVFDASVPKRVGMQKVIGHAFPSNLNGYEDVYSELEEVIA” it was “not soluble”.
To “GSEDINRNPLLPTKEDEKMDGVIYGAYLPNLEKSVIPIGTASESTEPVNRYQIGVNLAGDAWAGYMSPRDNKFNGSKNFTNYFMYENWVNYVYSFMVTDVYSPWMQIKRISQDEGTRNDEIYALAQIIKIAALHRTTDMFGPIPYSQVGKGSFKVAYDSQESVYRSFLKELEEAVQTLDDYSNKSKEVLPAFDIVYNGDVNKWMRFANSLMLRLAIRVRFADAGLAKEYAEKAVKHPAGLINSKELAAQMGKGAGLQMKNPLKVINEEYNDTRMGATIYSYLAGYNDARAAVYFVKNNGFKAVRCGIAKSGDAYNGFTRPNVHEDDPLYWMKASEVCFLKAEGALAGFDMGGSAGDFYNAGIRMSFSENGLDNSSAETYLKDSTRKPANYTDTSNGELSANAPSSITIRWENGATEEEKLERIITQKYLAIFPNGQEAWTEWRRTGYPRQIVVAENKTNSAVLIGNGYDLGGVRRLPYPRTEYEQNGENLHNAISQYLGGVDNAATKVWWDKKSK” belongs “soluble”; to “MNIFNPNHDRKAIVIFSGGQDSTTCLFQAIAEYGKENIEAITFQYGQRHAIELEKARTIAQDLGIKQTLIDTSVMKAITHNALMDEQAHIEQKENELPNTFVDGRNALFLLYAAIYAKGQGIQDIITGVCETDFSGYPDCRDVFIKSMNVTLNLAMDYPIPISKTPLMYLTKAQTWQLADEFRRIRLCTKTYSHLL”, “not soluble”; to “MAHHHHHHMGSTDGECASSLRGHRMPSWILSHLETESKCLNDTPLVEEEKAPPSVPVTVLKKRFPQGLKILKKAPPKEKIVMPVEEECADSCRSSRPSVSVQSAVPGNGHRIARHTIRFRMSDWANLIEEKKDLVAQAVKEDISEGCGLDIGRILQLELKLTDILVVTFIVDHSHDDGGERPFHARLKVCKFPRTSSLYLLR”, “soluble”.
To “QFMKPFISEKSSKSLEIPLGFNEYFPAPFPITVDLLDYSGRSWTVRMKKRGEKVFLTVGWENFVKDNNLEDGKYLQFIYDRDRTFYVIIYGHNMCS” belongs “not soluble”.
With “MAHHHHHHMSRLVMTAPPSLPPFLLLSGASSPPPPPISHTHTHTHTHTHTAMASLAHLSTPLPSEPSAAAPPPAASAPAGALHLERFLESVLKQNLDTVLSQRDELYATVAQCAQLRWLMDDMQALSRYHSFIEASTAAETAAAVPLSALSPVASGSPNASLPLMSKRAQADAYKPPQKNKVLVDLGNHFYTQGVVKDAGVLFMNMGCGVVLPMSLDEAREFLRKKEAVVRRMIMNKSKEALRIKYRIRLVTEAIARLHERHLGL”, the “soluble on expression in E. coli” value is recorded as “not soluble”.
In the case of “TQKSLSNFLLSMQEAFSLGEEDRLLAVTTVAFDISALELYLPLISGAQIVIAKKETIREPQALAQMIENFDINIMQATPTLWHALVTSEPEKLRGLRVLVGGEALPSGLLQELQDLHCSVTNLYGPTETTIWSAAAFLEEGLKGVPPIGKP” it was “not soluble”.
Turning to “MRIAAAVVSIGLAVIAGFAVPVADAHPSEPGVVSYAVLGKGSVGNIVGAPMGWEAVFTRPFQAFWVELPACNNWVDIGLPEVYDDPDLASFNGATTQTSATDQTHLVKQAVGVFASNDAADRAFHRVVDRTVGCSGQTTAIHLDDGTTQVWSFAGGPSTGTDEAWTKQEAGTDRRCFVQTRLRENVLLQAKVCQSGNAGPAVNVLAGAMQNTLG”, the “soluble on expression in E. coli” value is “soluble”.
In the case of “MGSDKIHHHHHHMTIQIDLPETSTNKIIYSDECKDILNLSVAKIQEMFKSSGIILFRGFGITHELMQVFAEQFSSRLTRDDDKPLVEPNGFVSLVDIGMHEILPHRENGSSPFSPDAVWFCCTVPAAEGGETLFWDGIQVWQKLSEELRKLFISKKIKFVHKFPADKWKHFLGSDATISDAKRVLDGFNNVKYQIDQEESIYTEYICSAVLQTKYGNQNAFVNDIITGNSNLKGSVNLELESALTFEDGSLIPDAAIEEIEKVMYSLTQEIRWKPGDLVMIDNSRFLHGRRAFSDNRRRLFSLLSYLNF” it was “not soluble”; in that of “GKDFTYNASLTFSHARNEIRNMDEPATKTAYRKQEGHPINQYFGLVCDGFVTQADLNNPDFPVSTFGNVQVGDLKYRDMNGDGFIDSRDETFIGYSDVPENTYALSLGCEYKGIGFSIMFQGVDHVSRYYDAEAMYAFVNGGKVKEHHLNRWNPNQSEAYNLTHASYPLLHYDSYGDHNQRKNSFFLKNGNFLRLKNIELSYSLPARWIRKVAMNECRVYVNANNLITWDKLDGLCDPESEGSNRYPIMKTVNFGVNIKF”, “not soluble”.
In the case of “MGSDKIHHHHHHMLAERLVSDYDVEVLTTCVRDVATGENIYPEGEEEWNGVVIRRFRTNPVQREKERYFAKKAKPARKLRQFLFKLGILKYLSYLIPVWSYKHDDEVQAMKSDKFYSSALNDYIRDHIDEYKAFIAMSSDYVTFYYTALYAGRKTIAIPTMHNMGISFRSVLTSAFSKIAYVGFNTGEEQRLAENILGKALGAHGILSVGIEESLSADWAMTKEKFQLPEKYLLYIGRITPKKIHRLLTYFVNYKKKYSDSTLRLVLVGGLAMERFEHPDVIYTGFVSDEEKMSILQHADIVVNPSRYESLSLILLEAMSQKRPMLVNGHCKVLKEHCLKSDFASFYYMNNRGFNQALRRIEQSEDLREEMGEKGVFYVKSNYNWTLIMGRLKQAIKSI” it was “not soluble”; in that of “MSLASRRTDLIGMIVPDARQPFFGEMAHAVEQAAAERGKMVLVGNSDYVAEREVHYLRAFLGMRVSGLILVSHALNNQAAAEIEAWDARVVLLHERPELIDDVAVVTDDIGGAQLATRHLLEHGYAYVACLGGTAETPSVGDPVSDHVEGWRRAMQEAGIPTEGKLFEAPYNRYDAYQVGLELLAGPNRPPAIFCSTDDQAIGVLRAARELRIDVPGELAVAGFDDVKEAALTDPPLTTIASDRSAMARAAVDLVLDDGLRVAGSRRERLKLFPSRLVVRRSCGCAPQETPGSEGHHHHHH”, “soluble”; in that of “MGSDKIHHHHHHMLQQRIQSLEEQEHLPSLLSADAQELAHQLQEHQKKIFSPSAQKTMRLFSPAEAAAFIGIGEGYLRQIASEGHGPQPLSNGRRMYAMEDIDRIRRVLDEGSKTGKYIPHRRPGEKLQVVSVMNFKGGSGKTTTSAHLAQYLALRGYRVLAIDLDPQASLSALFGHQPELDVGEGETLYGAIRYEAPRPIAEVVRSTYTANLHLIPGNLELMEFEHETPKAMIAGSTETMFFARIGEVLSEIESFYDIVVIDCPPQLGFLTMSALCAATSVLITVHPQMLDVMSMSQFLSMTSELMAVVENAGGRTSYDWMRYLVTRFEPNDGPQSQMTGFMRAIFGNRMLQNAMVKSTAISDAGVTKQTLYEVERSQFIRGTYDRAMDSLSLVNAEIEEMIRRVWGRK”, “not soluble”.
Take “LALYRCAADVQAALDYYFDSETEREDTLEAVIGQFEVKAQSVIAYIKNQEITEKMLEGHIRRMTGKLKAVKAQNQSLKDYLARNMQAAGITEIKADDGTFKASFRKSEAVVILDEAQIPAEFMREAVKTEPDKTAIRKAIESGRQVAGAKIEGRKNLQIR”: the “soluble on expression in E. coli” value is given as “not soluble”.
With “MPLGSLFDKTYDEMHCNQKSWEMAERQLMEDAVNVALQKNNLTKDDIDLLLAGDLLNQNVTANYVARHLKIPFLCMFGACSTSMETVAVASALVDGGFAKRALAATSSHNATAERQFRYPTEYGGQKPDTATSTVTGSGAVVISQTPGDIQITSATVGKVSDLGITDPFDMGSAMAPAAADTIKQHFKDLNRTADDYDLILTGDLSGVGSPIVKDILKEDGYPVGTKHDDCGLLIYTPDQQVFAGGSGCACSAVVTYSHIFKQLREGKLNRVFVVATGALLSPTMIQQKETIPTIAHGVVFERAGGASLEHHHHHH”, the “soluble on expression in E. coli” value is reported as “not soluble”.
In the case of “MWLSGARLVLPDRVLTEGSLRLEGERIAEVREGFVPSGMDLRGFTVVPGLVDLHGDSLERELEPRPGVRLPLELALPSWELRQLAAGITTVYATVAFWEGAGGVREPDQGLRLAQELWGLRSALHVDLRIHARYEVSRPQGEPAVREALRKGWVHLLSFMDHTPGQGQFHDLETYVRYMARHHGRPEAEVYDEVKRLSTRATWEGLEALAAEALAKSIPLASHDDDTPDRVALMARLGVTVSEFPVRLEAAKEAKVRGMTVVMGAPNALRGGSHHGNLSALDALREGLLDALATDYLPEAALRAPFRLAAQGLLDLPLALALVTRRPALAVGLADRGALAPGLRADLVVLKESPFSVLGAFVAGKPVFVGGELAHALA” it was “soluble”.
To “MAQMKDNNVSNRATLVLYENRFIPLYRMIKEELIRFVQKKGIKSGMALPGDNELASQFGVSVGTVRRAIAELVSERIVIRQQGRGTFLAPYDTSRMLNSFWHIERRDGVVDVPLVSTHGFSQASATEEVAQKLALQPGDPVFVIKNSMTMQGTPVLLDTIYVPVRTFEGLTREKLSARDATIYDFYREQYGINIVKTIDRVSATVADKDTAKRLGCKLGAPMLRILRVAYSFGDTPIEYRCSLLDSENHEYVDVTGGDTSRYG” belongs “not soluble”.
To “MALSSAPILITGASQRVGLHCALRLLEHGHQVIISYRTEHASVAQLRQAGAHTLHGDFSSEASIMAFIEQLKSHTSSLRAIVHNASEWLAETPGDEAENFTRMFSVHMLAPYLINLHCEALLHASDVADIVHISDDVTRKGSSKHIAYCATKAGLESLTLSFAARFAPLVKVNGIAPALLMFQPKDDAAYRANALAKSAMGIEPGAEVIYQSLRYLLDSTYVTGTTLTVNGGRHV” belongs “not soluble”.
In the case of “MKERTIQPVNNGLNGNITIPGDKSISHRAVMFGAIAEGTTTIKGFLPGADCLSTISCFKEMGVDIVQNGDEVTVVGKGLEGLQEPKAVLDVGNSGTTIRLMSGILANTPFLSCVQGDTSIAKRPMKRVTNPLKQMGANIDGREEGTFTPLTIRGGDLKAIEYTSPVASAQVKSAILLAGLRAEGVTAVTEPHISRDHTERMLEAFGVKVTREGKTVKLAGGQKLTATDVQVPGDVSSAAFFLVAGAIIPNSKLVLENVGMNPTRTGIIDVLEKMGATFTVEPINEGASEPAANITIETSSLKGIEIGGDIIPRLIDEIPVIALAATQAEGITVIKDAHELKVKETNRIDTVVAELTKLGARIEATDDRMIIYGKSALKGNTVNSYGDHRIGMMLAIAGCIAEGKTIIEDAEAVGVSYPTFFEELQKLAK”, the “soluble on expression in E. coli” value is “not soluble”.
